Assay results: PMC10716038, “Talin and kindlin use integrin tail allostery and direct binding to activate integrins” (Nature Structural & Molecular Biology, 2023)
“And” between values parts separate entries of the source, which are not always exact repeats. Equal values may be shown once. Read-outs that look alike come from different tables or passages of the source. One block for each molecule: values may come before it. No end group written: not given here.

B1: talin-1 head domain (THD1) (domain or fragment)
chain: MVALSLKISIGNVVKTMQFEPSTMVYDACRMIRERIPEALAGPPNDFGLFLSDDDPKKGIWLEAGKALDYYMLRNGDTMEYRKKQRPLKIRMLDGTVKTIMVDDSKTVTDMLMTICARIGITNHDEYSLVRELMEEKKDEGTGTLRKDKTLLRDEKKMEKLKQKLHTDDELNWLDHGRTLREQGVEEHETLLLRRKFFYSDQNVDSRDPVQLNLLYVQARDDILNGSHPVSFDKACEFAGFQCQIQFGPHNEQKHKAGFLDLKDFLPKEYVKQKGERKIFQAHKNCGQMSEIEAKVRYVKLARSLKTYGVSFFLVKEKMKGKNKLVPRLLGITKECVMRVDEKTKEVIQEWSLTNIKRWAASPKSFTLDFGDYQDGYYSVQTTEGEQIAQLIAGYIDIILKKKKS

Tests used:
[1] = target: ATTO 488-labelled β1-CT (488–β1-CT) (UniProt P05556); assay: MST; ATTO 488-labelled β-CT peptide (50–200 nM) held constant, one unlabelled protein titrated; 20 mM Tris pH 7.5, 200 mM NaCl, 1 mM TCEP, 0.05% Tween-20; apparent affinities (near-saturation only)
[2] = target: ATTO 488-labelled β1-CT^Y783A (UniProt P05556); assay: as above
Chain of ATTO 488-labelled β1-CT^Y783A (P05556 752-798 Y783A): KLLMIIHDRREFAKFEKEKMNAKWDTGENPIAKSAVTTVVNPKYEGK

[3] = target: ATTO 488-labelled β1-CT^Y795A (UniProt P05556); assay: as above
Chain of ATTO 488-labelled β1-CT^Y795A (P05556 752-798 Y795A): as the sequence (P05556 752-798 Y783A) above, with A32Y, Y44A counted along it

[4] = target: ATTO 488-labeled β1–spacer–CT (UniProt P09055); assay: MST; apparent; THD1 titrated to 488–β1-spacer-CT in the presence of 30-35 µM KIND2; MST buffer
[5] = target: ATTO 488-labelled β1–spacer–CT (UniProt P05556); assay: MST; as a7, with a second unlabelled protein present at near-saturating concentration (named in the quantity or in the printed words); apparent constants (Kd,app*)
[6] = target: ATTO 488-labelled β1–spacer–CT (UniProt P05556); assay: MST; ATTO 488-labelled β-CT peptide (50–200 nM) held constant, one unlabelled protein titrated; 20 mM Tris pH 7.5, 200 mM NaCl, 1 mM TCEP, 0.05% Tween-20; apparent affinities (near-saturation only)
[7] = target: ATTO 488-labeled β1–spacer–CT (UniProt P09055); assay: MST; unlabelled protein titrated to 50-200 nM ATTO 488-labelled β-CT peptide, no third protein; 20 mM Tris pH 7.5, 200 mM NaCl, 1 mM TCEP, 0.05% Tween-20; Kd of individual titrations (in S0002 mean and sd, n = 2)
[8] = target: T1, β1 transmembrane and cytoplasmic tail polypeptide (β1-TM–CT) in nanodiscs (UniProt P05556 726-798, biotin (biotin-maleimide)); assay: FACS; 10% PIP2 nanodiscs
T1 chain: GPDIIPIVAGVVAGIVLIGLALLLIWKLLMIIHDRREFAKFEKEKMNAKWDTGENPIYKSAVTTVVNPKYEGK

[9] = target: T2, α5-TM lacking the cytoplasmic domain (tailless α5-TM) in nanodiscs (UniProt P11688 993-1025, biotin (biotin-maleimide)); assay: FACS; 10% PIP2 nanodiscs
T2 chain: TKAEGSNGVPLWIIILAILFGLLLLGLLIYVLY

[10] = target: β1-TM–CT Y795A (KIND2-binding impaired) in nanodiscs (UniProt P09055 726-798, Y795A, biotin (biotin-maleimide)); assay: FACS; 10% PIP2 nanodiscs
[11] = target: T3, β1-TM–CT Y783A (THD1-binding impaired) in nanodiscs (UniProt P09055 726-798, Y783A, biotin (biotin-maleimide)); assay: FACS; 10% PIP2 nanodiscs
[12] = target: T4, β3 transmembrane and cytoplasmic tail polypeptide (β3-TM–CT) in nanodiscs (UniProt O54890 715-787, biotin (biotin-maleimide)); assay: FACS; 10% PIP2 nanodiscs
T4 chain: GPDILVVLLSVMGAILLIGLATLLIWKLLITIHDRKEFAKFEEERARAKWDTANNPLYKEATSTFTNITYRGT

[13] = target: T1, β1 transmembrane and cytoplasmic tail …; assay: FACS; 10% PIP3 nanodiscs
[14] = target: T2, α5-TM lacking the cytoplasmic domain …; assay: FACS; 10% PIP3 nanodiscs
[15] = target: T3, β1-TM–CT Y783A (THD1-binding impaired) …; assay: FACS; 10% PIP3 nanodiscs
[16] = target: T4, β3 transmembrane and cytoplasmic tail …; assay: FACS; 10% PIP3 nanodiscs
[17] = target: T5, kindlin-2 (KIND2) (UniProt Q8CIB5 1-680); assay: MST
T5 chain: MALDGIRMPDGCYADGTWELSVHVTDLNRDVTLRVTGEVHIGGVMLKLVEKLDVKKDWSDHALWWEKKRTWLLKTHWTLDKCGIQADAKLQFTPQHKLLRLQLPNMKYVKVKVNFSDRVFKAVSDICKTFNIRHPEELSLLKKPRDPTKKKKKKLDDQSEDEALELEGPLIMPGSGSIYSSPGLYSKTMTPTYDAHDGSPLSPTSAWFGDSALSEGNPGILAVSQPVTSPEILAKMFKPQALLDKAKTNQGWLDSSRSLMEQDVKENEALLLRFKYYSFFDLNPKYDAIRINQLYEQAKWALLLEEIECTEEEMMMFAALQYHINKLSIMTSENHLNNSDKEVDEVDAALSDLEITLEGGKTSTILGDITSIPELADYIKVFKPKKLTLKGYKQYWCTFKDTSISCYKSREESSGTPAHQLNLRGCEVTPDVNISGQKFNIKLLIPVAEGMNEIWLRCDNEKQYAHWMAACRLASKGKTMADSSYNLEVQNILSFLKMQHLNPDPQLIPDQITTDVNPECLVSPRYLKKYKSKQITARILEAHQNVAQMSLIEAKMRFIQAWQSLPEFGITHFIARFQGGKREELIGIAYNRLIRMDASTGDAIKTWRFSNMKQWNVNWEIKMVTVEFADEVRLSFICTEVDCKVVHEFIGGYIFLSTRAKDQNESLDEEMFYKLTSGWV

[18] = target: B1; assay: MST
[19] = target: ATTO 488-labeled β1–spacer–CT (UniProt P09055); assay: MST; apparent; KIND2-Y13A titrated to 488–β3-CT or KIND2 to 488–β1-spacer-CT in the presence of 300-400 µM THD1; MST buffer
[20] = target: ATTO 488-labelled β1–spacer–CT (UniProt P05556); assay: MST; ATTO 488-labelled β-CT peptide (50–200 nM) held constant, one unlabelled protein titrated; 20 mM Tris pH 7.5, 200 mM NaCl, 1 mM TCEP, 0.05% Tween-20; apparent affinities (near-saturation only); remark: listed apart in the source
[21] = target: ATTO 488-labeled β1–spacer–CT (UniProt P09055); assay: MST; unlabelled protein titrated to 50-200 nM ATTO 488-labelled β-CT peptide, no third protein; 20 mM Tris pH 7.5, 200 mM NaCl, 1 mM TCEP, 0.05% Tween-20; Kd of individual titrations (in S0002 mean and sd, n = 2); remark: listed apart in the source
[22] = target: β1-TM–CT Y783A (THD1-binding impaired) in nanodiscs (UniProt P09055); assay: flow cytometry-based reporter-displacement assay (FC-RDA) on beads; biotinylated TM–CT in 10% PIP3/90% DMPC nanodiscs on streptavidin beads; reporter 50 nM 647–KIND2, unlabelled competitor titrated; 20 mM Tris pH 7.5, 200 mM NaCl, room temperature; IC50 of individual experiments; charged lipids contribute to the binding

- Kd of the kindlin contribution (fit of concentrations up to 5 µM) [1]: 2.9 µM
- Kd of the talin contribution (fit of concentrations above 5 µM) [1]: 25 µM
- Kd [2]: 4.8 µM
- Kd [3]: 470 µM
Molecule: TLN1-F3–ΔKIND2 fusion protein

- Kd [4]: 254 µM and 320 µM and 262 µM
- apparent Kd (Kd,app*) in the presence of KIND2 [5]: 279 µM
- Kd [6]: 181 µM
- Kd [7]: 178 µM and 171 µM and 193 µM
Molecule: talin-1 head domain (THD1) (from UniProt P26039 1-405) (domain or fragment)

- Kd [19]: 6.09 µM and 3.02 µM and 8.05 µM
- apparent Kd (Kd,app*) in the presence of THD1 [5]: 6 µM
- Kd [20]: 5 µM
- Kd [21]: 5.47 µM and 5.42 µM and 5.12 µM
- IC50 [22]: 0.297 µM and 0.278 µM and 0.387 µM
B2: kindlin-2 (KIND2) (natural protein)
chain: MALDGIRMPDGCYADGTWELSVHVTDLNRDVTLRVTGEVHIGGVMLKLVEKLDVKKDWSDHALWWEKKRTWLLKTHWTLDKCGIQADAKLQFTPQHKLLRLQLPNMKYVKVKVNFSDRVFKAVSDICKTFNIRHPEELSLLKKPRDPTKKKKKKLDDQSEDEALELEGPLIMPGSGSIYSSPGLYSKTMTPTYDAHDGSPLSPTSAWFGDSALSEGNPGILAVSQPVTSPEILAKMFKPQALLDKAKTNQGWLDSSRSLMEQDVKENEALLLRFKYYSFFDLNPKYDAIRINQLYEQAKWALLLEEIECTEEEMMMFAALQYHINKLSIMTSENHLNNSDKEVDEVDAALSDLEITLEGGKTSTILGDITSIPELADYIKVFKPKKLTLKGYKQYWCTFKDTSISCYKSREESSGTPAHQLNLRGCEVTPDVNISGQKFNIKLLIPVAEGMNEIWLRCDNEKQYAHWMAACRLASKGKTMADSSYNLEVQNILSFLKMQHLNPDPQLIPDQITTDVNPECLVSPRYLKKYKSKQITARILEAHQNVAQMSLIEAKMRFIQAWQSLPEFGITHFIARFQGGKREELIGIAYNRLIRMDASTGDAIKTWRFSNMKQWNVNWEIKMVTVEFADEVRLSFICTEVDCKVVHEFIGGYIFLSTRAKDQNESLDEEMFYKLTSGWV

Further lines, the molecule ahead of its results:

Molecule: B1
- IC50 [8]: 0.073 µM
- IC50 [9]: 0.274 µM
- IC50 [10]: 0.098 µM
- IC50 [11]: 0.307 µM
- IC50 [12]: 0.066 µM
- IC50 [13]: 0.092 µM
- IC50 [14]: 0.411 µM
- IC50 [15]: 0.427 µM
- IC50 [16]: 0.083 µM

Molecule: {ATTO 488}-KLLITIHDRKEFAKFEEERARAKWDTANNPLAKEATSTFTNITYRGT [ATTO 488-labelled β3-CT^Y772A]
- Kd [17]: 15.5 µM
- Kd [18]: 511 µM
